According to publication PMC6721657:

target: full length extracellular fragment of FGFR1-IIIc fused to the Fc (UniProt P11362); experiment: BLI; FGFR1c-Fc loaded on Protein A biosensors (20 μg/mL, 600 s); FGF1 proteins 100 to 800 nM in solution; PBS, 25 °C, 1000 rpm; global fit with the 2:1 heterogeneous ligand model and steady state analysis; three independent experiments
UniProt P11362, sequence (P11362 22-376): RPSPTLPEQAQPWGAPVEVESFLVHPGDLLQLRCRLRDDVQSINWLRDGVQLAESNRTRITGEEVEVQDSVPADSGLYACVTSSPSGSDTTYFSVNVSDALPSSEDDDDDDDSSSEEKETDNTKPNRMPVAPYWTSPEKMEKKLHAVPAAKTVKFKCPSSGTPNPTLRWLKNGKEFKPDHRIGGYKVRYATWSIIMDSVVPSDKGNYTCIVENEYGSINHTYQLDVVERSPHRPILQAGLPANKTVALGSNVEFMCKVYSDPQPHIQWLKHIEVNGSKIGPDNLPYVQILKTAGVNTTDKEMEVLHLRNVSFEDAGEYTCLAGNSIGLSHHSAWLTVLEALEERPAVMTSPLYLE

KD1 (2:1 heterogeneous ligand model)	KD2 (2:1 heterogeneous ligand model)	Substance
1.02e-07	1.05e-07	FGF1 Q40P/S47I/H93G variant (Ala-FGF1 21-154) (ligand)
291 nM	152 nM	FGF1 R35E mutant (Ala-FGF1 21-154) (ligand)
477 nM	690 nM	FGF1 R35E/Q40P/S47I/H93G mutant (Ala-FGF1 21-154) (ligand)
46.9 nM	75.6 nM	wild-type fibroblast growth factor 1, truncated form (Ala-FGF1 21-154) (ligand)
